Legend:
[1] = biological target: T1, PF4/heparin complex (human PF4 complexed with heparin) (human, UniProt P02776 32-101); assay: BLI (Octet), biotinylated PF4/heparin on streptavidin sensors, scFv 1 µg/mL
T1 construct: Multimeric complex of PF4 with heparin (not a protein); In the EIAs: PF4 captured on biotinylated heparin on streptavidin plates; In the SRA: platelets with 0.2 U/mL heparin; also called PF4 and heparin complexes
T1 sequence: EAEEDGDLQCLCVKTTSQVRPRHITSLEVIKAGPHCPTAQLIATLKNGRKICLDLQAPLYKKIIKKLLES
Experimental: (§1) The Octet-QK Red 96 (FortéBio, Menlo Park, CA) instrumentation was used to conduct all BLI experiments. A 96-well microtiter plate (black, flat-bottom) was used to hold 200 μL per well of either sample or buffer. Pre-coated streptavidin biosensor tips (FortéBio) were hydrated in phosphate buffered saline (PBS) containing 1% bovine serum albumin (BSA, Sigma-Aldrich) before performing all kinetic assays. Each step was performed at an operating temperature of 23° C. with agitation at 1000 rpm. Streptavidin tips were first equilibrated in PBS+1% BSA to establish a baseline. […] The PF4-coated tips were then dipped into PBS+1% BSA for 13 minutes to re-establish a baseline. Tips were then incubated in an analyte solution containing half-fold dilutions of wildtype scFv (4.0, 2.0, 1.0, 0.5, 0.25 μg/mL in PBS+1% BSA) for 10 minutes to measure association. For mutant scFv association, tips were incubated in an analyte solution containing 200 μL of each mutant and wildtype scFv at a final concentration of 1 μg/mL in PBS+1% BSA. Antibody dissociation steps were performed by dipping sensors in wells containing PBS+1% BSA for 56 minutes. The following negative controls included in these kinetic experiments were also measured: 200 μL of buffer to replace both the antigen and scFv and 200 μL buffer replacing scFv only. Each experiment was performed with PF4 or with PF4/heparin as the immobilized antigen.
(§2) BLI experiments were performed to evaluate binding responses and affinities of wildtype and mutant scFv. Biotinylated PF4 alone or complexed with heparin was immobilized on streptavidin biosensors and used to capture wildtype scFv. Half-fold serial dilutions of wildtype scFv ranging from 0.25 μg/mL to 4 μg/mL were used to determine the optimal concentrations for future experiments PF4 (PF4 FIG. 3; PF4/heparin FIG. 4).

[2] = biological target: T1, PF4/heparin complex (human PF4 …); assay: competition EIA, scFv 50 µg/mL; competitor HIT-negative sera antibodies, n=10
[3] = biological target: T1, PF4/heparin complex (human PF4 …); assay: BLI (Octet), biotinylated PF4/heparin on streptavidin sensors, scFv 1 µg/mL, 1:1 model
Experimental: as §1, §2

[4] = biological target: T1, PF4/heparin complex (human PF4 …); assay: cell-based or functional assay
[5] = biological target: T2, Human PF4 (CXCL4), biotinylated, without heparin (human, UniProt P02776 32-101, biotinylated with EZ-link-Sulfo-NHS-LC-Biotin (sites not given)); assay: BLI (Octet), biotinylated PF4 without heparin on streptavidin sensors, scFv 1 µg/mL, 1:1 model
T2 construct: Immobilised on streptavidin biosensors for BLI; also called PF4 alone; platelet factor 4
T2 sequence: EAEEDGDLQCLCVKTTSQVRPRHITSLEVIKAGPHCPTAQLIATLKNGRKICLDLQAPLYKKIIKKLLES
Experimental: as §1, §2

[6] = biological target: T1, PF4/heparin complex (human PF4 …); assay: competition EIA on PF4/biotinylated heparin, scFv 0-160 µg/mL; competitor full-length KKO 2 µg/mL
Experimental: Inhibitory PF4/heparin IgG-specific Streptavidin Enzyme Immunoassay (EIA). The binding activity of wildtype and mutant scFv antibodies to PF4/heparin complexes was measured using an inhibitory PF4/heparin IgG-specific EIA with a streptavidin-biotin capture system. Before performing this protocol, 96-well NUNC Maxisorp plates (ThermoFisher) were coated with 10 μg/mL streptavidin for 24 h. Plates were then blocked with 3% bovine serum albumin (BSA) in phosphate buffered saline (PBS) for 2 h at room temperature. Plates were then coated with 1 U/mL biotinylated-heparin for 1 h followed by 30 μg/mL PF4 for 1 h. Increasing concentrations of wildtype or mutant scFv were added and incubated for 1 hr at room temperature. Without removing wildtype or scFv, HIT patient sera in a 1:50 dilution or full-length KKO (2 μg/mL) was then incubated for 1 h at room temperature. After washing, alkaline phosphatase-conjugated anti-human or anti-mouse IgG (Jackson Immuno Research Laboratories, Inc., West Grove, PA) was added at a 1:4000 dilution and incubated for 1 h temperature. For detection, 1 mg/mL p-nitrophenylphosphate (PNPP, Sigma-Aldrich) substrate dissolved in 1 mol/L diethanolamine (DEA) buffer (pH 9.6) was added. The optical density (OD) was measured at 2 min intervals for 30 min at 405 nm (OD₄₀₅ₙₘ) using a BioTek 800 TS plate reader (BioTek Instruments Inc., Winooski, VT) to determine if anti-PF4/heparin antibody binding was inhibited. Results were reported as a decrease in OD (absorbance at 405 nm) from baseline levels.
To further evaluate the binding of mutant and wildtype scFv, their ability to inhibit full-length KKO from binding PF4/heparin complexes was assessed in a modified streptavidin-capture EIA. Biotinylated heparin was immobilized with PF4 on streptavidin-coated plates and incubated with KKO in the presence of scFv at half-fold serial dilutions from 0 to 160 μg/mL. […] Wildtype scFv and mutant C were unable to inhibit full-length KKO binding at these concentrations and IC50 values for these constructs were not calculated.

[7] = biological target: T2, Human PF4 (CXCL4), biotinylated, …; assay: BLI (Octet), biotinylated PF4 without heparin on streptavidin sensors, scFv at 1 µg/mL, 1:1 model, mean ± s.d. [cont.) b]
Experimental: BLI experiments were performed using wildtype scFv, mutant B, mutant C, mutant D, mutant E, and mutant F at 1 μg/mL. Binding was measured against immobilized biotinylated PF4 on streptavidin biosensors. b) Table showing kinetic data of wildtype and mutant scFv, including binding responses and association and dissociation rates. All data was analyzed based on a 1:1 homogenous ligand binding model using Octet® User Software version 3.1.
as §1
BLI experiments were performed to evaluate binding responses and affinities of wildtype and mutant scFv. Biotinylated PF4 alone or complexed with heparin was immobilized on streptavidin biosensors and used to capture wildtype scFv.

B1: Mutant F scFv, scFv(E183V, E186K, G223R) (scFv)
scFv: DIQMIQSQKFMSTSVGDRVTVTCKASQNVGTNVAWYQQKPGQSPNALIYSASYRYSGVPDRFTGSGSGTDFTLTITNVQSEDLADYFCQQYNSYPLTFGTGTKLDLKGGGGSGGGGSGGGGSVQLQQSGAELVKPGASVKLSCKASGYTFTNYFIYWVKQRPGQGLEWIGEINPRNGDTDFNVKFKSRATLTVDKSSSTAYMQLSSLTSEDSAIYYCTRSPYRNNYGFTYWGQGTLVTVSA
notes: VL-linker-VH; histidine-tagged, from E. coli BL21; also called Mut F; not shown: histidine tag from the pADL-22c vector
average binding response (wavelength shift) [1]: 0.285 nm
fold increase of binding response against wildtype scFv [1]: 5 fold
mean % inhibition of serum antibody binding [2]: -57%
Kd [3]: 0.292 nM
% inhibition of 14C-serotonin release (SRA), HIT-Positive Patient #1 serum, scFv 50 µg/mL [4]: 97.8%
% inhibition of 14C-serotonin release (SRA), HIT-Positive Patient #2 serum, scFv 50 µg/mL [4]: 21.8%
% inhibition of 14C-serotonin release (SRA), HIT-Positive Patient #3 serum, scFv 50 µg/mL [4]: 50.6%
% inhibition of 14C-serotonin release (SRA), HIT-Positive Patient #4 serum, scFv 50 µg/mL [4]: 50%
% inhibition of 14C-serotonin release (SRA), HIT-Positive Patient #5 serum, scFv 50 µg/mL [4]: 90.3%
Kd [5]: 0.607 nM
IC50 [6]: 1.3 µg/mL
koff [7]: 2.52e-05 s⁻¹
kon [7]: 42200 M⁻¹ s⁻¹
